In US20250188161A1:

B1: LMT-10 (20G4) (antibody, V domains shown)
VH: QVQLVESGGGLVQPGGSLTLSCAASGFTFSNYYMTWVRQAPGKGLEWVSSIYSTGSHTYYADSVKGRFTISRDNAKDTLYLQMNDLKSEDTAVYYCAKNIYTYYTAHYAGMDYWGKGTLVTVSS
VL: QSALTQPSTVSVSLGQMARITCQGGSLGSYDAHWYQQKPGQAPVLVIHDDNSRPSGIPERFSGSRSGGTATLTISGAQADDEGVYFCHSYDSSANAPVFGGGTELTVL
B2: LMT-2 (6D12) (antibody, V domains shown)
VH: EVQLVESGGGLVQPGGSLRLSCAASGFTFSNYGVHWVRQAPGKGLEWVSHISAAGISRYYADAVKGRFTMSRDNGKNTLYLQMNGLKSEDTAVYYCAKDRIRSSYEYDSWGQGTQVTVSS
VL: LPVLTQLSSMSGSPGQTVTITCTGSSSNIGGGYYLSWYQQLPGTAPKLLIYNANNRASGVPNRFSGSKSGNLASLTITGLQAEDEADYYCGCYDSSLSTGYVFGGGTKLTVL
B3: LMT-12 (14D7) (antibody, V domains shown)
VH: EVQLVESGGGLVQPGGSLRLSCAASGFTFSSYYMYWVRQAPGKGLEWVSGTSIGGGSTWYADSVKGRFTISRDNAKNTLYLQMNNLKSEDTAVYYCAKDLNSRSYKGMGDWGQGTQVTVSS
VL: QPALTQLSSMSGSPGQTVTITCTGSSSNIGGGYYLNWYQQLPGAAPKLVIYNANNRASGVPDRFSGSKSGNLASLTITGLQAEDEAVYFCGCYDSSLSSVVFGGGTHLTVL
B4: LMT-9 (20G3) (antibody, V domains shown)
VH: LQLVESGGGLVQPGGSLRLSCAASGFTFSRSGMAWVRQAPGKGLEWVSAITPGGTATYYANSVKGRVTMSRDNAKNTLYLQMNSLKSEDTAVYYCAKGLVSSGLNGMDYWGKGTLVTVSS
VL: QSVLTQLSSMSGSPGQTVTITCTGSSSNIGGGYYLSWYQQLPGTAPKLLIYNTNNRASGVPNRFSGSKTGSLASLTITGLQAEDEADYYCGCYDDSLNTYVFGGGTKLTVL
B5: LHT-15 (13E7) (antibody, V domains shown)
VH: EVQLVESGGDLVQPGGSLRLSCAASGFTFSSYWMDWVRQAPGKGLEWVSRITNSGGTAFYTDSVEGRFTISRDNAKNTLYLQMNSLKSEDTAVYYCLRYITRAQLMGAWDYWGQGTQVTVSS
VL: ATMLTQSPGSLSVVPGESASISCKASQSLVHTDGKTYLSWLLQKPGQRPQLLIYQVSNRASGVPDRFTGSGSGTDFTLKISGVKAEDAGVYYCAQSTYYPYDFGSGTRLEIR
B6: LHT-22 (15A2) (antibody, V domains shown)
VH: ELQLVESGGGLVQPGGSLRLSCAASGFTFDDYTMNWVRQAPGKGLEWVSAIRWNGVTTYYAESMKGRFTVSRDNGNNTLYLQMNSLKAEDTAVYYCAKGGSIDLTYGMDYWGKGTLVTVSS
VL: QAVVTQEPSLSVSPGGTVTITCGLSSGSVTRNNYPDWYQQTPGQAPRLLLYNTVARHSGVPSRFSGSISGNKAALTITGAQPEDEAGYYCALYMYTGSNNGRVFGGGTLLTVL
B7: LHT-18 (14E7) (antibody, V domains shown)
VH: QVQLVESGGGLVQPGGSLRLSCAASGFTFSHYWMYWVRQAPGKGLEWVSAINTGGGITYYTDSVKGRFTVSRDNAKNTLYLQMNSLKSEDTAVYYCAKSRYGVVITTTYFGGVDYWGKGTLVTVSS
VL: SSALTQPSAVSVSLGQTARITCQGGNFGSYYASWYQQKPGQAPVQVIYGNSNRPSGIPERFSGSSSGDTATLTISGAQAEDEADYYCLSYESSGYAVFGGGTHLTVL

biological target: HA-tagged mouse-human-mouse chimeric TGF-β1, mouse LAP residues 223-278 replaced by the corresponding human LAP segment, on HEK-293T cells co-transfected with GARP (mouse; human) (UniProt P04202); test: flow cytometry, HEK-293T cells co-transfected with mGarp and the HA-tagged TGF-β1 construct

% binding relative to WT TGF-β1 (100 %) [%]	Binder
99	B1
115	B2
89	B3
126	B4

biological target: HA-tagged mouse-human-mouse chimeric TGF-β1, mouse LAP residues 87-135 replaced by the corresponding human LAP segment, on HEK-293T cells co-transfected with GARP (mouse; human) (UniProt P04202); test: as above

% binding relative to WT TGF-β1 (100 %) [%]	Binder
158	B1
157	B2
99	B3
101	B5
164	B4

biological target: HA-tagged mouse-human-mouse chimeric TGF-β1, mouse LAP residues 136-200 replaced by the corresponding human LAP segment, on HEK-293T cells co-transfected with GARP (mouse; human) (UniProt P04202); test: as above

% binding relative to WT TGF-β1 (100 %) [%]	Binder
155	B2
105	B3
108	B4

biological target: HA-tagged mouse-human-mouse chimeric TGF-β1, mouse LAP residues 201-222 replaced by the corresponding human LAP segment, on HEK-293T cells co-transfected with GARP (mouse; human) (UniProt P04202); test: as above

% binding relative to WT TGF-β1 (100 %) [%]	Binder
89	B6
126	B1
2	B2
3	B3
63	B7
2	B4
